According to patent US20150104808A1 (Janssen / Centocor, published 2015):

Experiments:
[1] = molecular target: c-Met (hepatocyte growth factor receptor) on cells (human, UniProt P08581 25-1390); assay: cell-based or functional assay
[2] = molecular target: T1, EGFR (epidermal growth factor receptor) on cells (human, UniProt P00533 25-1210); assay: cell-based or functional assay
[3] = molecular target: Recombinant human c-Met Fc chimera (human) (UniProt P08581); assay: HGF competition on coated c-Met Fc chimera, competitor biotinylated HGF
[4] = molecular target: T1, EGFR (epidermal growth factor receptor) …; assay: A431 cell binding, anti-His-Alexa488 fluorescence
Experimental: A431 cells were plated at 5,000/well in opaque black 96-well plates and allowed to attach overnight at 37° C., in a humidified 5% CO₂ atmosphere. […] Supernatant was removed and cells were washed 3 times with 150 μL/well of FACS stain buffer. Cells were incubated with 50 μL/well of anti-penta His-Alexa488 antibody conjugate (Qiagen) diluted 1:100 in FACS stain buffer for 20 minutes at room temperature. Cells were washed 3 times with 150 μL/well of FACS stain buffer, after which wells were filled with 100 μL of FACS stain buffer and read for fluorescence at 488 nm using an Acumen eX3 reader. Data were plotted as raw fluorescence signal against the logarithm of the FN3 domain molar concentration and fitted to a sigmoidal dose-response curve with variable slope using GraphPad Prism 4 (GraphPad Software) to calculate EC₅₀ values.

Row | IC50, inhibition of HGF-stimulated c-Met phosphorylation (Tyr1349) in NCI-H292 [1] [nM] | IC50, inhibition of EGF-stimulated EGFR phosphorylation (Tyr1173) in NCI-H292 [2] [nM] | IC50 [3] [nM] | Binder | also measured
1 | 1.3 | 2.3 | – | ECB38 (designed binder) MLPAPKNLVVSEVTEDSARLSWDDPWAFYESFLIQYQESEKVGEAIVLTVPGSERSYDLTGLKPGTEYTVSIYGVHNVYKDTNMRGLPLSAIFTTAPAPAPAPAPLPAPKNLVVSRVTEDSARLSWTAPDAAFDSFWIRYFEFLGSGEAIVLTVPGSERSYDLTGLKPGTEYVVNIMGVKGGKISPPLSAIFTTAPAPAPAPAPLAEAKVLANRELDKYGVSDYYKNLINNAKTVEGVKALLDEILAALP | –
2 | – | – | 5.2 | P114AR5P74-A5 (designed binder, not shown: small tags and cut ends) LPAPKNLVVSRVTEDSARLSWTAPDAAFDSFWIRYDEVVVGGEAIVLTVPGSERSYDLTGLKPGTEYYVNILGVKGGSISVPLSAIFTT | –
3 | – | – | 51.9 | P114AR5P75-E9 (designed binder, not shown: small tags and cut ends) LPAPKNLVVSRVTEDSARLSWTAPDAAFDSFFIRYDEFLRSGEAIVLTVPGSERSYDLTGLKPGTEYWVTILGVKGGLVSTPLSAIFTT | –
4 | – | – | 0.7 | P114AR7P94-E5 (designed binder, not shown: small tags and cut ends) LPAPKNLVVSRVTEDSARLSWTAPDAAFDSFWIRYFEFLGSGEAIVLTVPGSERSYDLTGLKPGTEYAVNIMGVKGGRVSVPLSAIFTT | –
5 | – | – | 1.6 | P114AR7P92-G8 (designed binder, not shown: small tags and cut ends) LPAPKNLVVSRVTEDSARLSWTAPDAAFDSFVIRYFEFLGSGEAIVLTVPGSERSYDLTGLKPGTEYVVQILGVKGGYISIPLSAIFTT | –
6 | – | – | 1.4 | P114AR7P95-F10 (designed binder, not shown: small tags and cut ends) LPAPKNLVVSRVTEDSARLSWTAPDAAFDSFWIRYFEFTTAGEAIVLTVPGSERSYDLTGLKPGTEYVVNIMGVKGGSISPPLSAIFTT | –
7 | – | – | 0.2 | P114AR7P94-A3 (designed binder, not shown: small tags and cut ends) LPAPKNLVVSRVTEDSARLSWTAPDAAFDSFWIRYFEFLGSGEAIVLTVPGSERSYDLTGLKPGTEYVVNIMGVKGGKISPPLSAIFTT | –
8 | – | – | 2.2 | P114AR7P92-F6 (designed binder, not shown: small tags and cut ends) LPAPKNLVVSRVTEDSARLSWTAPDAAFDSFWIRYFEFLGSGEAIVLTVPGSERSYDLTGLKPGTEYVVNILGVKGGGLSVPLSAIFTT | –
9 | – | – | 2.9 | P114AR7P93-H9 (designed binder, not shown: small tags and cut ends) LPAPKNLVVSRVTEDSARLSWTAPDAAFDSFWIRYFEFLGSGEAIVLTVPGSERSYDLTGLKPGTEYVVQIIGVKGGHISLPLSAIFTT | –
10 | 0.5 | 1.6 | – | ECB147v3-PEG24 (designed binder, PEG24-maleimide on the engineered cysteines) LPAPKNLVVSEVTEDSARLSWDDPWAFYESFLIQYQESEKVGEAIVLTVPGSERSYDLTGLCPGTEYTVSIYGVHNVYKDTNMRGLPLSAIFTTAPCPAPAPAPLPAPKNLVVSRVTEDSARLSWTAPDAAFDSFWIRYFEFLGSGEAIVLTVPGSERSYDLTGLCPGTEYVVNIMSVKGGSISPPLSAIFTTAPCPAPAPAPLAEAKVLANRELDKYGVSDYYKNLINNAKTVEGVKALLDEILAALP | –
11 | 0.4 | 1.4 | – | ECB147v6-PEG24 (designed binder, PEG24-maleimide on the engineered cysteine) LPAPKNLVVSEVTEDSARLSWDDPWAFYESFLIQYQESEKVGEAIVLTVPGSERSYDLTGLCPGTEYTVSIYGVHNVYKDTNMRGLPLSAIFTTAPAPAPAPAPLPAPKNLVVSRVTEDSARLSWTAPDAAFDSFWIRYFEFLGSGEAIVLTVPGSERSYDLTGLKPGTEYVVNIMSVKGGSISPPLSAIFTTAPAPAPAPAPLAEAKVLANRELDKYGVSDYYKNLINNAKTVEGVKALLDEILAALP | –
12 | 0.4 | 0.9 | – | ECB147v5-PEG24 (designed binder, PEG24-maleimide on the engineered cysteines) LPAPKNLVVSEVTEDSARLSWDDPWAFYESFLIQYQESEKVGEAIVLTVPGSERSYDLTGLCPGTEYTVSIYGVHNVYKDTNMRGLPLSAIFTTAPAPAPAPAPLPAPKNLVVSRVTEDSARLSWTAPDAAFDSFWIRYFEFLGSGEAIVLTVPGSERSYDLTGLCPGTEYVVNIMSVKGGSISPPLSAIFTTAPAPAPAPAPLAEAKVLANRELDKYGVSDYYKNLINNAKTVEGVKALLDEILAALP | –
13 | 0.5 | 1.4 | – | ECB147v7-PEG24 (designed binder, PEG24-maleimide on the engineered cysteines) LPAPKNLVVSEVTEDSARLSWDDPWAFYESFLIQYQESEKVGEAIVLTVPGSERSYDLTGLKPGTEYTVSIYGVHNVYKDTNMRGLPLSAIFTTAPCPAPAPAPLPAPKNLVVSRVTEDSARLSWTAPDAAFDSFWIRYFEFLGSGEAIVLTVPGSERSYDLTGLKPGTEYVVNIMSVKGGSISPPLSAIFTTAPCPAPAPAPLAEAKVLANRELDKYGVSDYYKNLINNAKTVEGVKALLDEILAALP | –
14 | – | – | 1 | P114AR7P93-G8 (designed binder, not shown: small tags and cut ends) LPAPKNLVVSRVTEDSARLSWTAPDAAFDSFWIRYFEFLGSGEAIVLTVPGSERSYDLTDLKPGTEYGVTINGVKGGRVSTPLSAIFTT | –
15 | – | – | – | P54CR4-31 (designed binder, not shown: small tags and cut ends) LPAPKNLVVSEVTEDSLRLSWTAPDAAFDSFLIQYQESEKVGEAINLTVPGSERSYDLTGLKPGTEYTVSIYGVLGSYVFEHDVMLPLSAEFTT | EC50 [4]: > 20000 nM
